According to patent US20050037969A1 (ARBOR VITA, published 2005):
Ends that are not written are not given here. * marks the point of attachment. Biotin = O=C1N[C@H]2[C@H](CS[C@H]2CCCCC(=O)*)N1

T1: GST-CASK PDZ domain fusion protein (Homo sapiens, UniProt O14936 486-575)
T1 construct: also called Homo sapiens CASK protein
T1 sequence: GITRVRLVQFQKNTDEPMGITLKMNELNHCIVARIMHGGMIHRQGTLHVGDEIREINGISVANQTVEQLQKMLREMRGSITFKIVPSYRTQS

T2: GST-TAX-IP43 PDZ domain fusion protein (human, UniProt Q13884 109-180)
T2 construct: also called TAX43; not shown: glutathione S-transferase encoded by vector pGEX-3X (Pharmacia)
T2 sequence: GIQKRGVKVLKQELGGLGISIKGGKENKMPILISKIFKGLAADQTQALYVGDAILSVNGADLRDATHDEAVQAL

T3: GST-PDZK1 fusion protein (PDZ domains 2-4) (Homo sapiens, UniProt Q5T2W1 134-457)
T3 construct: not shown: glutathione S-transferase encoded by vector pGEX-3X (Pharmacia)
T3 sequence: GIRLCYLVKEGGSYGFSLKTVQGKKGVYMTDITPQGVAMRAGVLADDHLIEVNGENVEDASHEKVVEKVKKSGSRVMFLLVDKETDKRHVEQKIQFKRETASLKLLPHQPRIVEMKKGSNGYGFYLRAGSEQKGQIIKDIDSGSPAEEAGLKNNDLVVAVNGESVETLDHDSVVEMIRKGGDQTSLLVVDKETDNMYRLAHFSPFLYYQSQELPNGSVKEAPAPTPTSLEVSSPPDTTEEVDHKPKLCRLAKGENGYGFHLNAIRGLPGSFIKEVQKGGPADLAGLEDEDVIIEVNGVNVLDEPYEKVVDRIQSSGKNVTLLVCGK

T4: GST-DLG5 (p-dlg) PDZ domain fusion protein (Human, UniProt Q8TDM6 1343-1583)
T4 construct: also called Human discs large protein p-dlg; not shown: glutathione S-transferase encoded by vector pGEX-3X (Pharmacia)
T4 sequence: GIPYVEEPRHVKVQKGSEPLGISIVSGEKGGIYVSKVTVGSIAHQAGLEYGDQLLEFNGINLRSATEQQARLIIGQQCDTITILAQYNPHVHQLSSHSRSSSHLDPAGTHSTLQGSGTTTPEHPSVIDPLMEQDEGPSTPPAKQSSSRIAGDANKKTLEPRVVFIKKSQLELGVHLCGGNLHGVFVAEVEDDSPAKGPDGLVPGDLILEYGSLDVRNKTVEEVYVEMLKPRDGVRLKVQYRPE

T5: GST-mouse syntenin fusion protein (Mus musculus, UniProt O08992 108-286)
T5 construct: also called Mus musculus Syntenin; not shown: glutathione S-transferase encoded by vector pGEX-3X (Pharmacia)
T5 chain: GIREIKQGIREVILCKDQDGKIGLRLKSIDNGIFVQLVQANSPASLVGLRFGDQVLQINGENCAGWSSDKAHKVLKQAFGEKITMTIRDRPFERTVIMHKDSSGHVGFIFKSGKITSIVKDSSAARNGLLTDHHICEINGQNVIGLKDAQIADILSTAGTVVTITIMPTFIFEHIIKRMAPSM

T6: GST-DVL1 PDZ domain fusion protein (human, UniProt O14640 247-339)
T6 construct: also called human dishevelled segment polarity protein homolog; not shown: glutathione S-transferase encoded by vector pGEX-3X (Pharmacia)
T6 sequence: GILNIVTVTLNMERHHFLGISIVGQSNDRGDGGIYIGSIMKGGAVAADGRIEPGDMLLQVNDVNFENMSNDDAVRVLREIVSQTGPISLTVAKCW

T7: KIAA0807 (PDZ domain)-GST fusion protein (human, UniProt Q6P0Q8 1104-1192)
T7 construct: also called K807; KIAA807; not shown: glutathione S-transferase encoded by vector pGEX-3X (Pharmacia)
T7 sequence: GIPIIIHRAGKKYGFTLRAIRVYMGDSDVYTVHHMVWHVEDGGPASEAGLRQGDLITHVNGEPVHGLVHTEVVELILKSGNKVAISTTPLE

T8: X11β PDZ-GST fusion protein (Rattus norvegicus (Rat), UniProt O35431 560-745)
T8 construct: Order of GST and PDZ part and limits not seen in the excerpts
T8 chain: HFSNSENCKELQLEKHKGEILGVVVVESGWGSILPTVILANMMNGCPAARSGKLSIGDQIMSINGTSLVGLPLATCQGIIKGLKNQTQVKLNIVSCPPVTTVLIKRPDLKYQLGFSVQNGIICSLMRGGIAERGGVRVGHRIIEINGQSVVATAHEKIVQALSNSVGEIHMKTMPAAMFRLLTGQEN

T9: TAX-IP2L PDZ-GST fusion protein (Homo sapiens (Human), UniProt Q8TF64 107-197)
T9 construct: Order of GST and PDZ part and limits not seen in the excerpts
T9 sequence: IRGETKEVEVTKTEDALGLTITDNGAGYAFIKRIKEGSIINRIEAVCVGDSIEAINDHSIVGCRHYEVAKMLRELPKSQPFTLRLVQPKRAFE

T10: TAX-IP33 PDZ-GST fusion protein (Homo sapiens (Human), UniProt O14910 103-193)
T10 construct: Order of GST and PDZ part and limits not seen in the excerpts
T10 sequence: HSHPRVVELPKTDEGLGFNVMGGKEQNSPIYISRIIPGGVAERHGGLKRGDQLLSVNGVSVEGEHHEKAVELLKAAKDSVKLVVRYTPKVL

T11: MINT3 PDZ-GST fusion protein
T11 construct: Order of GST and PDZ part and limits not seen in the excerpts
T11 chain: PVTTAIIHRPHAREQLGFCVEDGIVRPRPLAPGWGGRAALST

T12: K559 PDZ-GST fusion protein (Homo sapiens (Human), UniProt Q9Y6V0 4489-4593)
T12 construct: Order of GST and PDZ part and limits not seen in the excerpts
T12 sequence: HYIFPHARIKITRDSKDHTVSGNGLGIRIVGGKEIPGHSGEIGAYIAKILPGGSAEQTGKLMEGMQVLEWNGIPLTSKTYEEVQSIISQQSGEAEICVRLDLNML


How the values were obtained:
Assay in all cases: A/G assays
[1] = target: T1, GST-CASK PDZ domain fusion protein
[2] = target: T2, GST-TAX-IP43 PDZ domain fusion protein
[3] = target: T3, GST-PDZK1 fusion protein (PDZ domains …)
[4] = target: T4, GST-DLG5 (p-dlg) PDZ domain fusion …
[5] = target: T5, GST-mouse syntenin fusion protein
[6] = target: T6, GST-DVL1 PDZ domain fusion protein
[7] = target: T7, KIAA0807 (PDZ domain)-GST fusion protein
[8] = target: T8, X11β PDZ-GST fusion protein
[9] = target: T9, TAX-IP2L PDZ-GST fusion protein
[10] = target: T10, TAX-IP33 PDZ-GST fusion protein
[11] = target: T11, MINT3 PDZ-GST fusion protein
[12] = target: T12, K559 PDZ-GST fusion protein
[13] = target: T13, K316 PDZ-GST fusion protein (Homo sapiens (Human), UniProt Q14CM0 72-159)
T13 construct: Order of GST and PDZ part and limits not seen in the excerpts
T13 sequence (Q14CM0 72-159 limits assumed): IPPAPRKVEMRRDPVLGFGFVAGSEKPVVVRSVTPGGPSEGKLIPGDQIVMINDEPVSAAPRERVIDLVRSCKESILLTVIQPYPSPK

Row | Binder | binding result [1] | binding result [2] | binding result [3] | binding result [4] | binding result [5] | binding result [6] | binding result [7] | binding result [8] | binding result [9] | binding result [10] | binding result [11] | binding result [12] | binding result [13]
1 | Biotin-SSKSKSSEESQTFFGLYKL (not fully specified, also called FasLigand; Fas ligand) [FasL C-terminal peptide AA23L-M, biotinylated] | no binding | no binding | no binding | no binding | no binding | no binding | no binding | no binding | no binding | no binding | no binding | no binding | no binding
2 | Biotin-STNHSIGSTQSTPCSTSSMA (also called CD105 (endoglin)) [CD105 C-terminal peptide AA16L, biotinylated] | no binding | no binding | no binding | no binding | no binding | no binding | no binding | no binding | no binding | no binding | no binding | no binding | no binding
3 | Biotin-HKAEIHAQPSDKERLTSDA (also called CD49F (Aform, alpha6)) [CD49F C-terminal peptide AA12L, biotinylated] | no binding | no binding | no binding | no binding | no binding | no binding | no binding | no binding | no binding | no binding | no binding | no binding | no binding
4 | Biotin-LERTSSVSPSTAEPELSIVF (Only the last four residues are seen in the excerpts) [CC CKR-3 C-terminal peptide AA43L] | no binding | no binding | no binding | no binding | no binding | no binding | no binding | no binding | no binding | no binding | no binding | no binding | no binding

More lines, now with the values ahead:

Row | binding result [1] | binding result [2] | binding result [3] | binding result [4] | binding result [5] | binding result [6] | binding result [7] | binding result [8] | binding result [9] | binding result [10] | binding result [11] | binding result [12] | binding result [13] | Binder
5 | no binding | no binding | no binding | no binding | no binding | no binding | no binding | no binding | no binding | no binding | no binding | no binding | no binding | Biotin-QGDPALQDAGDSSRKEYFI (also called GC) [Glycophorin C C-terminal peptide AA37L, biotinylated]
6 | no binding | no binding | no binding | no binding | no binding | no binding | no binding | no binding | no binding | no binding | no binding | no binding | no binding | Biotin-ISGTPTSTMVHGMTSSSSVV [Clasp-2 C-terminal peptide AA2L, biotinylated]
7 | no binding | no binding | no binding | no binding | no binding | no binding | no binding | no binding | no binding | no binding | no binding | no binding | no binding | Biotin-EVICYIEKPGVETLEDSVF [CDW125 (IL5R) C-terminal peptide AA28L, biotinylated]
8 | no binding | no binding | no binding | no binding | no binding | no binding | no binding | no binding | no binding | no binding | no binding | no binding | no binding | Biotin-SSSQSLESDGSYQKPSYIL (Only the last four residues are seen in the excerpts) [CD62E C-terminal peptide AA48L]
9 | no binding | no binding | no binding | no binding | no binding | no binding | no binding | no binding | no binding | no binding | no binding | no binding | no binding | Biotin-SMQPDNSSDSDYDLHGAQRL (Only the last four residues are seen in the excerpts) [CD5 C-terminal peptide AA49L]
